B1: 人源化32D12C12抗体 (humanized 32D12C12) (antibody, V domains shown)
VH: EVQLVESGGGLVQPGGSLKLSCAASGFTFNTYAMNWVRQASGKGLEWVGRIRSKTANFATFYADSVTDRFTISRDDSKNTLYLQMNSLKTEDTAVYYCVRHGAYYTYDGAMDYWGQGTTVTVSS
VL: DIQMTQSPSSLSASVGDRVTITCKASQDVRTAIAWYQQKPGKAPKLLIYWASTRHTGVPSRFSGSGSGTDYTLTISSLQPEDFATYYCQQHYSTPYTFGQGTKLEIK
B2: RB0003-30E6D5 (antibody, V domains shown)
VH: EVQLQQSGAELVKPGASVKLSCTTSGFNIKDYFIHWVKQRTEQGLEWIGRIDPEDGETKYAPKFQGKATITADTSSNTAYLQLSSLTSEDTAVYYCVSYSTYPDYWGQGTTLTVSS
VL: HIVLTQSPALMSTSPGEKVTMTCSASSSVSYMYWYQQKPRSSPKPWIYLTSTLASGVPARFSGSGSGTSYSLTISSMEAEDAATYYCQQWSSTPFTFGSGTKLEIKR

Tests used:
[1] = molecular target: T1, 人IL-5蛋白 (human interleukin-5) (human, UniProt P05113 20-134); assay: affinity measurement (sensorgram, 1:1 binding model; Figure 3)
T1 construct: ELISA coating antigen (1 ug/mL) and stimulus in the cell assays; also called hIL5; RB0003
T1 sequence (looked up): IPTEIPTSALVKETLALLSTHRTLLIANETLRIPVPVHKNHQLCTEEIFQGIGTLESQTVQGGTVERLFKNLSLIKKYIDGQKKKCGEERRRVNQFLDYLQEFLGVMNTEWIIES

[2] = molecular target: T1, 人IL-5蛋白 (human interleukin-5); assay: cell-based or functional assay

Row | binding result [1] | IC50(ng/mL), 阻断增殖 (TF-1 proliferation, CellTiter-Glo) [2] [ng/mL] | Binder
1 | binds |  | B1
2 |  | 16.3 | B2

Source: patent CN112745389A (REYOUNG SUZHOU BIOPHARMACEUTICAL CO LTD, dated 2021)
